{
  "source": "the supplement of paper PMC12783771",
  "parents": {"B1": {"name": "library; numbered along this chain (parent)", "chain": "MNIQIGELAKRTACPVVTIRFYEQEGLLPPPGRSRGNFRLYGEEHVERLQFIRHCRSLDMPLSDVRTLLSYRKRPDQDCGEVNMLLDEHIRQVESRIGALLELKHHLVELREACSGARPAQSCGILQGLSDCVCDTRGTTAHPSD"}},
  "key": {"[1]": {"variants_of": "B1", "test": "sfGFP reporter fluorescence (15 h) (µM FITC); higher = higher leak", "settings": "library round: Round 0; ligand: none", "outline": "(§1)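 PCR-made linear PbrR templates (Echo-normalized to 5 nM) were expressed in BL21 Star (DE3) extract (PANOx-SP) with pPbrR-sfGFP reporter plasmid and 30 μg/mL GamS. Reactions were 1 μL, Echo-assembled, with 1 µM lead chloride, 30 µM zinc acetate or no metal, incubated 15 hr at 30 °C. Endpoint sfGFP fluorescence (485/528 nm, Synergy Neo2) was converted to µM FITC via standard curves in 50 mM sodium borate pH 8.5. Up to three biological replicates.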"}, "[2]": {"variants_of": "B1", "test": "sfGFP reporter fluorescence (15 h) (µM FITC); higher = stronger transcriptional activation", "settings": "library round: Round 0", "outline": "as §1"}},
  "note": "± gives the standard deviation of the averaged measurements.",
  "data": [
    {"variant": "MNIQIGELAKRTACPVVTIRFYEQEGLLPPPGRSRGNFRLYGEEHVERLQFIRHCRSLDMPLSDVRTLLSYRKRPDQDCGEVNMLLDEHIRQVESRIGALLELKHHLVELREACSGARPAQSWGILQGLSDCVCDTRGTTAHPSD", "note": "[C123W]", "values": [
      {"measurement": "sfGFP reporter fluorescence", "setting": "[1]", "value": "0.0575 ± 0.001"},
      {"measurement": "sfGFP reporter fluorescence", "setting": "[2]; ligand: 1 µM Pb", "value": "0.05919 ± 0.00026"},
      {"measurement": "sfGFP reporter fluorescence", "setting": "[2]; ligand: 30 µM Zn", "value": "0.0546 ± 0.0026"}
    ]},
    {"variant": "MNVQIGELAKRTACPVVTIRFYEQEGLLPPPGRSRGNFRLYGEEHVERLQFIRHCRSLDMPLSDVRTLLSYRKRPDQDCGEVNMLLDEHIRQVESRIGALLELKHHLVELREACSGARPAQSCGILQGLSDCVCDTRGTTAHPSD", "note": "[I3V]", "values": [
      {"measurement": "sfGFP reporter fluorescence", "setting": "[1]", "value": "0.0619 ± 0.001"},
      {"measurement": "sfGFP reporter fluorescence", "setting": "[2]; ligand: 1 µM Pb", "value": "0.124 ± 0.0044"},
      {"measurement": "sfGFP reporter fluorescence", "setting": "[2]; ligand: 30 µM Zn", "value": "1.32 ± 0.025"}
    ]},
    {"variant": "MNIQIGELAKRTACPVVTIRFYEQEGLLPPPGMSRGNFRLYGEEHVERLQFIRHCRSLDMPLSDVRTLLSYRKRPDQDCGEVNMLLDEHIRQVESRIGALLELKHHLVELREACSGARPAQSCGILQGLSDCVCDTRGTTAHPSD", "note": "[R33M]", "values": [
      {"measurement": "sfGFP reporter fluorescence", "setting": "[1]", "value": "0.0629 ± 0.0013"},
      {"measurement": "sfGFP reporter fluorescence", "setting": "[2]; ligand: 1 µM Pb", "value": "0.0625 ± 0.0013"},
      {"measurement": "sfGFP reporter fluorescence", "setting": "[2]; ligand: 30 µM Zn", "value": "0.0619 ± 0.0015"}
    ]},
    {"variant": "MNIQIGELAKRTACPVVTIRFYEQEGLLPPPGRSRTNFRLYGEEHVERLQFIRHCRSLDMPLSDVRTLLSYRKRPDQDCGEVNMLLDEHIRQVESRIGALLELKHHLVELREACSGARPAQSCGILQGLSDCVCDTRGTTAHPSD", "note": "[G36T]", "values": [
      {"measurement": "sfGFP reporter fluorescence", "setting": "[1]", "value": "0.06469 ± 0.00026"},
      {"measurement": "sfGFP reporter fluorescence", "setting": "[2]; ligand: 1 µM Pb", "value": "0.08943 ± 0.00052"},
      {"measurement": "sfGFP reporter fluorescence", "setting": "[2]; ligand: 30 µM Zn", "value": "0.866 ± 0.074"}
    ]},
    {"variant": "MNIQIGELAKRTACPVVTIRFYEQEGLLPPPGRSRGNFHLYGEEHVERLQFIRHCRSLDMPLSDVRTLLSYRKRPDQDCGEVNMLLDEHIRQVESRIGALLELKHHLVELREACSGARPAQSCGILQGLSDCVCDTRGTTAHPSD", "note": "[R39H]", "values": [
      {"measurement": "sfGFP reporter fluorescence", "setting": "[1]", "value": "0.0625 ± 0.0018"},
      {"measurement": "sfGFP reporter fluorescence", "setting": "[2]; ligand: 1 µM Pb", "value": "0.0652 ± 0.0031"},
      {"measurement": "sfGFP reporter fluorescence", "setting": "[2]; ligand: 30 µM Zn", "value": "0.0663 ± 0.0047"}
    ]},
    {"variant": "MNIQIGELAKRTACPVVTIRFYEQEGLLPPPGRSRGNFRLYGEEHVERLQFIRHCRSLDMPLSDVRTLLSYRKRPDQDVGEVNMLLDEHIRQVESRIGALLELKHHLVELREACSGARPAQSCGILQGLSDCVCDTRGTTAHPSD", "note": "[C79V]", "values": [
      {"measurement": "sfGFP reporter fluorescence", "setting": "[1]", "value": "0.0572 ± 0.0015"},
      {"measurement": "sfGFP reporter fluorescence", "setting": "[2]; ligand: 1 µM Pb", "value": 0.0586},
      {"measurement": "sfGFP reporter fluorescence", "setting": "[2]; ligand: 30 µM Zn", "value": "0.05552 ± 0.00026"}
    ]},
    {"variant": "MNIQIGELAKRTACPVVTIRFYEQEGLLPPPGRSRGNFRLYGEEHVERLQFIRHCRSLDMPLSDVRTLLSYRKRPDQDCGEVNMLLDEHIRQVESRIGALLELKHHLVELREACSGARPAQSCGILQKLSDCVCDTRGTTAHPSD", "note": "[G128K]", "values": [
      {"measurement": "sfGFP reporter fluorescence", "setting": "[1]", "value": "0.122 ± 0.0031"},
      {"measurement": "sfGFP reporter fluorescence", "setting": "[2]; ligand: 1 µM Pb", "value": "0.192 ± 0.007"},
      {"measurement": "sfGFP reporter fluorescence", "setting": "[2]; ligand: 30 µM Zn", "value": "3.05 ± 0.22"}
    ]},
    {"variant": "MNIQIGELAKRTACPVVTIRFYEQEGLLPPPGRSRGNFRLYGEEHVERLQFIRHCRSLDMPLSDVRTLLSYRKRPDQDCGEVNMLLDEHIRQVESRIGALLELKHHLVELREACSGARPAQSCGILQGLSDCVCRTRGTTAHPSD", "note": "[D135R]", "values": [
      {"measurement": "sfGFP reporter fluorescence", "setting": "[1]", "value": "0.06267 ± 0.00052"},
      {"measurement": "sfGFP reporter fluorescence", "setting": "[2]; ligand: 1 µM Pb", "value": "0.098 ± 0.0086"},
      {"measurement": "sfGFP reporter fluorescence", "setting": "[2]; ligand: 30 µM Zn", "value": "0.909 ± 0.043"}
    ]},
    {"variant": "MNIQIGELAKRTACKVVTIRFYEQEGLLPPPGRSRGNFRLYGEEHVERLQFIRHCRSLDMPLSDVRTLLSYRKRPDQDCGEVNMLLDEHIRQVESRIGALLELKHHLVELREACSGARPAQSCGILQGLSDCVCDTRGTTAHPSD", "note": "[P15K]", "values": [
      {"measurement": "sfGFP reporter fluorescence", "setting": "[1]", "value": 0.0634},
      {"measurement": "sfGFP reporter fluorescence", "setting": "[2]; ligand: 1 µM Pb", "value": "0.0958 ± 0.01"},
      {"measurement": "sfGFP reporter fluorescence", "setting": "[2]; ligand: 30 µM Zn", "value": "1.34 ± 0.047"}
    ]},
    {"variant": "MNIQIGELAKRTACEVVTIRFYEQEGLLPPPGRSRGNFRLYGEEHVERLQFIRHCRSLDMPLSDVRTLLSYRKRPDQDCGEVNMLLDEHIRQVESRIGALLELKHHLVELREACSGARPAQSCGILQGLSDCVCDTRGTTAHPSD", "note": "[P15E]", "values": [
      {"measurement": "sfGFP reporter fluorescence", "setting": "[1]", "value": "0.0718 ± 0.001"},
      {"measurement": "sfGFP reporter fluorescence", "setting": "[2]; ligand: 1 µM Pb", "value": "0.088 ± 0.0021"},
      {"measurement": "sfGFP reporter fluorescence", "setting": "[2]; ligand: 30 µM Zn", "value": "0.4297 ± 0.0023"}
    ]},
    {"variant": "MNIQIGELAKRTACPVVTIRFYEQEGLLPPPGRSRGNFRLYGEEHVERLQFIRHCRSLDMPFSDVRTLLSYRKRPDQDCGEVNMLLDEHIRQVESRIGALLELKHHLVELREACSGARPAQSCGILQGLSDCVCDTRGTTAHPSD", "note": "[L62F]", "values": [
      {"measurement": "sfGFP reporter fluorescence", "setting": "[1]", "value": "0.0599 ± 0.0023"},
      {"measurement": "sfGFP reporter fluorescence", "setting": "[2]; ligand: 1 µM Pb", "value": "0.0652 ± 0.0015"},
      {"measurement": "sfGFP reporter fluorescence", "setting": "[2]; ligand: 30 µM Zn", "value": "0.168 ± 0.0039"}
    ]},
    {"variant": "MNIQIGELAKRTACPVVTIRFYEQEGLLPPPGRSRGNFRLYGEEHVERLQFIRHCRSLDMPGSDVRTLLSYRKRPDQDCGEVNMLLDEHIRQVESRIGALLELKHHLVELREACSGARPAQSCGILQGLSDCVCDTRGTTAHPSD", "note": "[L62G]", "values": [
      {"measurement": "sfGFP reporter fluorescence", "setting": "[1]", "value": "0.0586 ± 0.001"},
      {"measurement": "sfGFP reporter fluorescence", "setting": "[2]; ligand: 1 µM Pb", "value": "0.0579 ± 0.0015"},
      {"measurement": "sfGFP reporter fluorescence", "setting": "[2]; ligand: 30 µM Zn", "value": "0.0614 ± 0.00078"}
    ]},
    {"variant": "MNIQIGELAKRTACPVVTIRFYEQEGLLPPPGRSRGNFRLYGEEHVERLQFIRHCRSLDMPLSDVRTLLSYRKRPDQDCGEVNMLLDEHIRQVESRIGALLELKHHLVEFREACSGARPAQSCGILQGLSDCVCDTRGTTAHPSD", "note": "[L110F]", "values": [
      {"measurement": "sfGFP reporter fluorescence", "setting": "[1]", "value": "0.05626 ± 0.00026"},
      {"measurement": "sfGFP reporter fluorescence", "setting": "[2]; ligand: 1 µM Pb", "value": "0.0599 ± 0.0018"},
      {"measurement": "sfGFP reporter fluorescence", "setting": "[2]; ligand: 30 µM Zn", "value": "0.0619 ± 0.0021"}
    ]},
    {"variant": "MNIQIGELAKRTACPVVTIRFYEQEGLLPPPGRSRGNFRLYGEEHVERLQFIRHCRSLDMPLSDVRTLLSYRKRPDQDCGEVNMCLDEHIRQVESRIGALLELKHHLVELREACSGARPAQSCGILQGLSDCVCDTRGTTAHPSD", "note": "[L85C]", "values": [
      {"measurement": "sfGFP reporter fluorescence", "setting": "[1]", "value": "0.0607 ± 0.0018"},
      {"measurement": "sfGFP reporter fluorescence", "setting": "[2]; ligand: 1 µM Pb", "value": "0.0577 ± 0.0013"},
      {"measurement": "sfGFP reporter fluorescence", "setting": "[2]; ligand: 30 µM Zn", "value": "0.117 ± 0.0039"}
    ]}
  ]
}
